Measurements taken from the RNAGym collection of RNA variant scans (doi:10.1093/molbev/msab373).

B1: Azoarcus group I ribozyme (parent)
chain: GUGCCUUGCGCCGGGAAACCACGCAAGGGAUGGUGUCAAAUUCGGCGAAACCUAAGCGCCCGCCCGGGCGUAUGGCAACGCCGAGCCAAGCUUCGGCGCCUGCGCCGAUGAAGGUGUAGAGACUAGACGGCACCCACCUAAGGCAAACGCUAUGGUGAAGGCAUAGUCCAGGGAGUGGCGAAAGUCACACAAACCGG

Variants of: B1
Assay: reverse-splicing fitness (ratio to wild type); higher = more active; in vitro selection; Mg2+ level not given
How it was run: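 An in vitro group I ribozyme library with randomized positions was T7-transcribed and gel-purified. In triplicate, 10 pmol RNA in EPPS pH 7.5 was reacted with 50 pmoles of a 30-nt RNA substrate for 1 h at 37 °C across several added MgCl2 levels (1–48 mM), then stopped with EDTA. Products were reverse transcribed from a substrate-complementary primer, PCR-amplified and sequenced (HiSeq 4000). Fitness is a variant's read proportion after selection over that before, normalised to wild type.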

First: GUGCCUUGCGCCGGGAAACCACGCAAGGGAUGGUGUCAAAUUCGGCGAAACCUAAGCGCCCGCCCGGGCGUAUGGCAACGCGGAGCCAAGCUUCGGCGCCUGCGCCGAUGCAGGUGUAGUGACUAGACGGCACCCACCUAAGGCGAACGUUAUGGUGAAGGCAUAGUCGAGGGAGGGGCGAAAGUCACACAAACCGG
Second: GUGCCUUGCGCCGGGAAACCACGCAAGGGAUGGUGUCAAAUUCGGCGAAACCUAAGCGCCCGCCCGGGCGUAUGGCAACGCGGAGCCAAGCUUCGGCGCCUGCGCCGAUGCAGGUGUAGUGACUAGACGGCACCCACCUAAGGCGAACGUUAUGGUGAAGGCAUAGUCGAGGGAGAGGCGAAAGUCACACAAACCGG
The reverse-splicing fitness of the first is lower: 0.00259 for the first, 0.00573 for the second.

Compared with GUGCCUUGCGCCGGGAAACCACGCAAGGGAUGGUGUCAAAUUCGGCGAAACCUAAGCGCCCGCCCGGGCGUAUGGCAACGCGGAGCCAAGCUUCGGCGCCUGCGCCGAUGCAGGUGUAGUGACUAGACGGCACCCACCUAAGGCGAACGUUAUGGUGAAGGCAUAGUCGAGGGAGCGGCGAAAGUCACACAAACCGG, GUGCCUUGCGCCGGGAAACCACGCAAGGGAUGGUGUCAAAUUCGGCGAAACCUAAGCGCCCGCCCGGGCGUAUGGCAACGCGGAGCCAAGCUUCGGCGCCUGCGCCGAUGCAGGUGUAGUGACUAGACGGCACCCACCUAAGGCGAACGGUAUGGUGAAGGCAUAGUCUAGGGAGGGGCGAAAGUCACACAAACCGG is higher in reverse-splicing fitness: 0.00437 for the first, 0.00438 for the second.

Going from GUGCCUUGCGCCGGGAAACCACGCAAGGGAUGGUGUCAAAUUCGGCGAAACCUAAGCGCCCGCCCGGGCGUAUGGCAACGCGGAGCCAAGCUUCGGCGCCUGCGCCGAUGCAGGUGUAGUGACUAGACGGCACCCACCUAAGGCGAACGGUAUGGUGAAGGCAUAGUCUAGGGAGAGGCGAAAGUCACACAAACCGG to GUGCCUUGCGCCGGGAAACCACGCAAGGGAUGGUGUCAAAUUCGGCGAAACCUAAGCGCCCGCCCGGGCGUAUGGCAACGCGGAGCCAAGCUUCGGCGCCUGCGCCGAUGCAGGUGUAGUGACUAGACGGCACCCACCUAAGGCGAACGGUAUGGUGAAGGCAUAGUCUAGGGAGCGGCGAAAGUCACACAAACCGG, the reverse-splicing fitness falls from 0.00988 to 0.00748.

First: GUGCCUUGCGCCGGGAAACCACGCAAGGGAUGGUGUCAAAUUCGGCGAAACCUAAGCGCCCGCCCGGGCGUAUGGCAACGCGGAGCCAAGCUUCGGCGCCUGCGCCGAUGCAGGUGUAGUGACUAGACGGCACCCACCUAAGGCGAACGGUAUGGUGAAGGCAUAGUCCAGGGAGAGGCGAAAGUCACACAAACCGG
Second: GUGCCUUGCGCCGGGAAACCACGCAAGGGAUGGUGUCAAAUUCGGCGAAACCUAAGCGCCCGCCCGGGCGUAUGGCAACGCGGAGCCAAGCUUCGGCGCCUGCGCCGAUGCAGGUGUAGUGACUAGACGGCACCCACCUAAGGCGAACGGUAUGGUGAAGGCAUAGUCCAGGGAGGGGCGAAAGUCACACAAACCGG
The reverse-splicing fitness of the first is higher: 0.00628 for the first, 0.00447 for the second.

First: GUGCCUUGCGCCGGGAAACCACGCAAGGGAUGGUGUCAAAUUCGGCGAAACCUAAGCGCCCGCCCGGGCGUAUGGCAACGCGGAGCCAAGCUUCGGCGCCUGCGCCGAUGCAGGUGUAGUGACUAGACGGCACCCACCUAAGGCGAACGGUAUGGUGAAGGCAUAGUCCAGGGAGCGGCGAAAGUCACACAAACCGG
Second: GUGCCUUGCGCCGGGAAACCACGCAAGGGAUGGUGUCAAAUUCGGCGAAACCUAAGCGCCCGCCCGGGCGUAUGGCAACGCGGAGCCAAGCUUCGGCGCCUGCGCCGAUGCAGGUGUAGUGACUAGACGGCACCCACCUAAGGCGAACGUUAUGGUGAAGGCAUAGUCUAGGGAGUGGCGAAAGUCACACAAACCGG
The reverse-splicing fitness of the first is higher: 0.009 for the first, 0.00642 for the second.

First: GUGCCUUGCGCCGGGAAACCACGCAAGGGAUGGUGUCAAAUUCGGCGAAACCUAAGCGCCCGCCCGGGCGUAUGGCAACGCGGAGCCAAGCUUCGGCGCCUGCGCCGAUGCAGGUGUAGUGACUAGACGGCACCCACCUAAGGCGAACGUUAUGGUGAAGGCAUAGUCAAGGGAGUGGCGAAAGUCACACAAACCGG
Second: GUGCCUUGCGCCGGGAAACCACGCAAGGGAUGGUGUCAAAUUCGGCGAAACCUAAGCGCCCGCCCGGGCGUAUGGCAACGCGGAGCCAAGCUUCGGCGCCUGCGCCGAUGCAGGUGUAGUGACUAGACGGCACCCACCUAAGGCGAACGUUAUGGUGAAGGCAUAGUCGAGGGAGUGGCGAAAGUCACACAAACCGG
The reverse-splicing fitness of the first is higher: 0.00785 for the first, 0.00657 for the second.

First: GUGCCUUGCGCCGGGAAACCACGCAAGGGAUGGUGUCAAAUUCGGCGAAACCUAAGCGCCCGCCCGGGCGUAUGGCAACGCGGAGCCAAGCUUCGGCGCCUGCGCCGAUGCAGGUGUAGUGACUAGACGGCACCCACCUAAGGCGAACGGUAUGGUGAAGGCAUAGUCAAGGGAGGGGCGAAAGUCACACAAACCGG
Second: GUGCCUUGCGCCGGGAAACCACGCAAGGGAUGGUGUCAAAUUCGGCGAAACCUAAGCGCCCGCCCGGGCGUAUGGCAACGCGGAGCCAAGCUUCGGCGCCUGCGCCGAUGCAGGUGUAGUGACUAGACGGCACCCACCUAAGGCGAACGGUAUGGUGAAGGCAUAGUCAAGGGAGCGGCGAAAGUCACACAAACCGG
The reverse-splicing fitness of the first is lower: 0.00544 for the first, 0.00861 for the second.

Going from GUGCCUUGCGCCGGGAAACCACGCAAGGGAUGGUGUCAAAUUCGGCGAAACCUAAGCGCCCGCCCGGGCGUAUGGCAACGCGGAGCCAAGCUUCGGCGCCUGCGCCGAUGCAGGUGUAGUGACUAGACGGCACCCACCUAAGGCGAACGGUAUGGUGAAGGCAUAGUCAAGGGAGAGGCGAAAGUCACACAAACCGG to GUGCCUUGCGCCGGGAAACCACGCAAGGGAUGGUGUCAAAUUCGGCGAAACCUAAGCGCCCGCCCGGGCGUAUGGCAACGCGGAGCCAAGCUUCGGCGCCUGCGCCGAUGCAGGUGUAGUGACUAGACGGCACCCACCUAAGGCGAACGGUAUGGUGAAGGCAUAGUCGAGGGAGGGGCGAAAGUCACACAAACCGG, the reverse-splicing fitness falls from 0.0121 to 0.00427.

First: GUGCCUUGCGCCGGGAAACCACGCAAGGGAUGGUGUCAAAUUCGGCGAAACCUAAGCGCCCGCCCGGGCGUAUGGCAACGCGGAGCCAAGCUUCGGCGCCUGCGCCGAUGCAGGUGUAGUGACUAGACGGCACCCACCUAAGGCGAACGGUAUGGUGAAGGCAUAGUCGAGGGAGAGGCGAAAGUCACACAAACCGG
Second: GUGCCUUGCGCCGGGAAACCACGCAAGGGAUGGUGUCAAAUUCGGCGAAACCUAAGCGCCCGCCCGGGCGUAUGGCAACGCGGAGCCAAGCUUCGGCGCCUGCGCCGAUGCAGGUGUAGUGACUAGACGGCACCCACCUAAGGCGAACGGUAUGGUGAAGGCAUAGUCGAGGGAGCGGCGAAAGUCACACAAACCGG
The reverse-splicing fitness of the first is higher: 0.00983 for the first, 0.00829 for the second.

Compared with GUGCCUUGCGCCGGGAAACCACGCAAGGGAUGGUGUCAAAUUCGGCGAAACCUAAGCGCCCGCCCGGGCGUAUGGCAACGCGGAGCCAAGCUUCGGCGCCUGCGCCGAUGCAGGUGUAGUGACUAGACGGCACCCACCUAAGGCGAACGGUAUGGUGAAGGCAUAGUCCAGGGAGUGGCGAAAGUCACACAAACCGG, GUGCCUUGCGCCGGGAAACCACGCAAGGGAUGGUGUCAAAUUCGGCGAAACCUAAGCGCCCGCCCGGGCGUAUGGCAACGCGGAGCCAAGCUUCGGCGCCUGCGCCGAUGCAGGUGUAGUGACUAGACGGCACCCACCUAAGGCGAACGUUAUGGUGAAGGCAUAGUCCAGGGAGUGGCGAAAGUCACACAAACCGG is higher in reverse-splicing fitness: 0.0111 for the first, 0.0408 for the second.

Going from GUGCCUUGCGCCGGGAAACCACGCAAGGGAUGGUGUCAAAUUCGGCGAAACCUAAGCGCCCGCCCGGGCGUAUGGCAACGCGGAGCCAAGCUUCGGCGCCUGCGCCGAUGCAGGUGUAGUGACUAGACGGCACCCACCUAAGGCGAACGUUAUGGUGAAGGCAUAGUCAAGGGAGCGGCGAAAGUCACACAAACCGG to GUGCCUUGCGCCGGGAAACCACGCAAGGGAUGGUGUCAAAUUCGGCGAAACCUAAGCGCCCGCCCGGGCGUAUGGCAACGCGGAGCCAAGCUUCGGCGCCUGCGCCGAUGCAGGUGUAGUGACUAGACGGCACCCACCUAAGGCGAACGUUAUGGUGAAGGCAUAGUCAAGGGAGAGGCGAAAGUCACACAAACCGG, the reverse-splicing fitness rises from 0.00436 to 0.00776.

Going from GUGCCUUGCGCCGGGAAACCACGCAAGGGAUGGUGUCAAAUUCGGCGAAACCUAAGCGCCCGCCCGGGCGUAUGGCAACGCGGAGCCAAGCUUCGGCGCCUGCGCCGAUGCAGGUGUAGUGACUAGACGGCACCCACCUAAGGCGAACGUUAUGGUGAAGGCAUAGUCAAGGGAGGGGCGAAAGUCACACAAACCGG to GUGCCUUGCGCCGGGAAACCACGCAAGGGAUGGUGUCAAAUUCGGCGAAACCUAAGCGCCCGCCCGGGCGUAUGGCAACGCGGAGCCAAGCUUCGGCGCCUGCGCCGAUGCAGGUGUAGUGACUAGACGGCACCCACCUAAGGCGAACGGUAUGGUGAAGGCAUAGUCUAGGGAGUGGCGAAAGUCACACAAACCGG, the reverse-splicing fitness rises from 0.00301 to 0.00758.

Compared with GUGCCUUGCGCCGGGAAACCACGCAAGGGAUGGUGUCAAAUUCGGCGAAACCUAAGCGCCCGCCCGGGCGUAUGGCAACGCGGAGCCAAGCUUCGGCGCCUGCGCCGAUGCAGGUGUAGUGACUAGACGGCACCCACCUAAGGCGAACGGUAUGGUGAAGGCAUAGUCGAGGGAGUGGCGAAAGUCACACAAACCGG, GUGCCUUGCGCCGGGAAACCACGCAAGGGAUGGUGUCAAAUUCGGCGAAACCUAAGCGCCCGCCCGGGCGUAUGGCAACGCGGAGCCAAGCUUCGGCGCCUGCGCCGAUGCAGGUGUAGUGACUAGACGGCACCCACCUAAGGCGAACGGUAUGGUGAAGGCAUAGUCAAGGGAGUGGCGAAAGUCACACAAACCGG is higher in reverse-splicing fitness: 0.00703 for the first, 0.00854 for the second.

First: GUGCCUUGCGCCGGGAAACCACGCAAGGGAUGGUGUCAAAUUCGGCGAAACCUAAGCGCCCGCCCGGGCGUAUGGCAACGCGGAGCCAAGCUUCGGCGCCUGCGCCGAUGCAGGUGUAGUGACUAGACGGCACCCACCUAAGGCGAACGAUAUGGUGAAGGCAUAGUCCAGGGAGCGGCGAAAGUCACACAAACCGG
Second: GUGCCUUGCGCCGGGAAACCACGCAAGGGAUGGUGUCAAAUUCGGCGAAACCUAAGCGCCCGCCCGGGCGUAUGGCAACGCGGAGCCAAGCUUCGGCGCCUGCGCCGAUGCAGGUGUAGUGACUAGACGGCACCCACCUAAGGCGAACGAUAUGGUGAAGGCAUAGUCCAGGGAGGGGCGAAAGUCACACAAACCGG
The reverse-splicing fitness of the first is higher: 0.0086 for the first, 0.00353 for the second.

Going from GUGCCUUGCGCCGGGAAACCACGCAAGGGAUGGUGUCAAAUUCGGCGAAACCUAAGCGCCCGCCCGGGCGUAUGGCAACGCGGAGCCAAGCUUCGGCGCCUGCGCCGAUGCAGGUGUAGUGACUAGACGGCACCCACCUAAGGCGAACGAUAUGGUGAAGGCAUAGUCCAGGGAGAGGCGAAAGUCACACAAACCGG to GUGCCUUGCGCCGGGAAACCACGCAAGGGAUGGUGUCAAAUUCGGCGAAACCUAAGCGCCCGCCCGGGCGUAUGGCAACGCGGAGCCAAGCUUCGGCGCCUGCGCCGAUGCAGGUGUAGUGACUAGACGGCACCCACCUAAGGCGAACGUUAUGGUGAAGGCAUAGUCUAGGGAGAGGCGAAAGUCACACAAACCGG, the reverse-splicing fitness falls from 0.00773 to 0.00549.
